Where two headings read alike, the source gives them in different places.
B1: OXM-CTP-CTP: oxyntomodulin with two CTPs in tandem on the carboxy terminus, SEQ ID NO: 21, expressed in CHO cells (protein)
chain: LEDMATGSRTSLLLAFGLLCLPWLQEGSAHSQGTFTSDYSKYLDSRRAQDFVQWLMNTKRNRNNIASSSSKAPPPSLPSPSRLPGPSDTPILPQSSSSKAPPPSLPSPSRLPGPSDTPILPQ
modifications: OXM-CTP-CTP
B2: OXM-CTP-CTP-CTP: oxyntomodulin with three CTPs on the carboxy terminus, SEQ ID NO: 25 (protein)
chain: MATGSRTSLLLAFGLLCLPWLQEGSAHSQGTFTSDYSKYLDSRRAQDFVQWLMNTKRNRNNIASSSSKAPPPSLPSPSRLPGPSDTPILPQSSSSKAPPPSLPSPSRLPGPSDTPILPQSSSSKAPPPSLPSPSRLPGPSDTPILPQ
modifications: OXM-CTPx3
B3: CTP-OXM-CTP: oxyntomodulin with one CTP on the amino terminus and one on the carboxy terminus, SEQ ID NO: 9 (protein)
chain: MATGSRTSLLLAFGLLCLPWLQEGSASSSSKAPPPSLPSPSRLPGPSDTPILPQHSQGTFTSDYSKYLDSRRAQDFVQWLMNTKRNRNNIASSSSKAPPPSLPSPSRLPGPSDTPILPQ
modifications: CTP-OXM-CTP
B4: CTP-CTP-OXM: oxyntomodulin with two CTPs on the amino terminus, SEQ ID NO: 23 (protein)
chain: MATGSRTSLLLAFGLLCLPWLQEGSASSSSKAPPPSLPSPSRLPGPSDTPILPQSSSSKAPPPSLPSPSRLPGPSDTPILPQHSQGTFTSDYSKYLDSRRAQDFVQWLMNTKRNRNNIARSGCGRGTLGLMGLPFTARFP
modifications: CTPx2-OXM
B5: OXM-CTP-CTP-CTP-CTP-CTP: oxyntomodulin with five CTPs on the carboxy terminus, SEQ ID NO: 29 (protein)
chain: MATGSRTSLLLAFGLLCLPWLQEGSAHSQGTFTSDYSKYLDSRRAQDFVQWLMNTKRNRNNIASSSSKAPPPSLPSPSRLPGPSDTPILPQSSSSKAPPPSLPSPSRLPGPSDTPILPQSSSSKAPPPSLPSPSRLPGPSDTPILPQSSSSKAPPPSLPSPSRLPGPSDTPILPQSSSSKAPPPSLPSPSRLPGPSDTPILPQ
modifications: OXM-CTPx5
B6: OXM-CTP-CTP-CTP-CTP: oxyntomodulin with four CTPs on the carboxy terminus, SEQ ID NO: 27 (protein)
chain: MATGSRTSLLLAFGLLCLPWLQEGSAHSQGTFTSDYSKYLDSRRAQDFVQWLMNTKRNRNNIASSSSKAPPPSLPSPSRLPGPSDTPILPQSSSSKAPPPSLPSPSRLPGPSDTPILPQSSSSKAPPPSLPSPSRLPGPSDTPILPQSSSSKAPPPSLPSPSRLPGPSDTPILPQ
modifications: OXM-CTPx4
B7: CTP-OXM-CTP-CTP: oxyntomodulin with one CTP on the amino terminus and two on the carboxy terminus, SEQ ID NO: 15 (protein)
chain: MATGSRTSLLLAFGLLCLPWLQEGSASSSSKAPPPSLPSPSRLPGPSDTPILPQHSQGTFTSDYSKYLDSRRAQDFVQWLMNTKRNRNNIASSSSKAPPPSLPSPSRLPGPSDTPILPQSSSSKAPPPSLPSPSRLPGPSDTPILPQ
modifications: CTP-OXM-CTP-CTP

Tests used:
[1] = parameters: species or system rats; conditions: rat, in vivo
Text: Cohorts of 3 animals per group were bled at alternating time points. […] The study was divided into 3 sequential experiments, Experiment #1 (Groups 1-4), Experiment #2 (Groups 5-9) and Experiment #3 (Groups 10-13).

C57BL/6 mice [2] = test: IP glucose tolerance test (IPGTT); assay type: in vivo; conditions: for effect on glucose levels / glucose tolerance, in words: Experiment 1, 100 nmol/kg IP 15 min prior to glucose IP (1.5 g/kg)
Experimental: Overnight-fasted mice were measured for glucose (pre-dose glucose). Immediately after, they were IP injected with one of the test articles. […] Blood glucose level were measured by tail vein sampling using a handheld glucometer.

C57BL/6 mice [3] = test: Acute food intake study; assay type: in vivo
Experimental: At least one week before injection, mice were weighed and were transferred to a mini cage for acclimatization, (one mouse per cage). During the acclimatization period, they were handled daily and received two injections of vehicle to minimize stress during the study period. The day before the experiment, the mice were fasted. […] After injection, the mice were returned to their home cages (1 mouse per cage), and provided with a pre-weighed amount of chow. Food intake were measured 0, 1, 2, 4, 6, 8, 21, 32 and 44, 55, 68, 80, 93 and 141 h post injection by weighing the chow.
In this study, the acute effect on food intake was measured.
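For AUC(0-t) in this document: blood drawn at alternating time points, with three animals in each cohort.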
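For AUC∞ in this document: blood drawn at alternating time points, with three animals in each cohort.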
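For CL in this document: blood drawn at alternating time points, with three animals in each cohort.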
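For pharmacokinetic profile / PK parameters, comparison in words in this document: blood drawn at alternating time points, with three animals in each cohort.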

Molecule	pharmacokinetic profile / PK parameters, comparison in words [1]	AUC(0-t) ([1]; sc, 230 ug/kg) [ng·h/mL]	AUC∞ ([1]; sc, 230 ug/kg) [ng·h/mL]	CL ([1]; sc, 230 ug/kg) [mL/min/kg]	Cmax ([1]; sc, 230 ug/kg) [ng/mL]	MRT ([1]; sc, 230 ug/kg) [h]	Tmax ([1]; sc, 230 ug/kg) [h]	T½ ([1]; sc, 230 ug/kg) [h]	Vd ([1]; sc, 230 ug/kg) [L/kg]	CL ([1]; sc) [mL/min/kg]	Tmax ([1]; sc) [h]	Vd ([1]; sc) [L/kg]	Bioavailability [1] [%]	bioavailability as calculated from Experiments 1 & 2, change in words [1]	AUC(0-t) ([1]; iv, 230 ug/kg) [ng·h/mL]	AUC∞ ([1]; iv, 230 ug/kg) [ng·h/mL]	CL ([1]; iv, 230 ug/kg) [mL/min/kg]	MRT ([1]; iv, 230 ug/kg) [h]	T½ ([1]; iv, 230 ug/kg) [h]	T½β ([1]; iv, 230 ug/kg) [h]	further results
B1	superior PK parameters as compared to the CTP-OXM-CTP-CTP variant	697.00	702.10	5.045	50.90	8.20	6.00	4.76	2.0789												
B2										8.547	2.0	2.797									T½ ([1]; sc): 3.78 h
B3		144.87	170.82	20.7328	31.11	4.73	1.00	3.28	5.88775				24.44	no significant improvement	592.7	598.0	5.922	0.81	0.25	1.57	Vd ([1]; iv, 230 ug/kg): 0.8069 L/kg; effect on glucose levels / glucose tolerance, in words (C57BL/6 mice [2]): increased glucose levels
B4		114.15	129.85	27.2758	27.77	4.10	1.00	2.74	6.45976				23.36	no significant improvement	488.6	490.4	7.222	0.86	0.27	1.20	Vd ([1]; iv, 230 ug/kg): 0.7481 L/kg; effect on glucose levels / glucose tolerance, in words (C57BL/6 mice [2]): minor impact on glucose tolerance
B5	superior in these parameters compared to other variants									5.77	8	4.812									T½ ([1]; sc): 9.63 h; cumulative food inhibition sustained for (C57BL/6 mice [3]; cumulative food intake, mice): at least 141 hrs; time for which food intake was reduced compared to vehicle (C57BL/6 mice [3]; single SC 1700 nmol/kg, male C57BL/6 mice): 5 days; duration of food intake inhibition, percentage of food intake per time interval (C57BL/6 mice [3]; time intervals over the experiment (FIG. 6B), single SC, male C57BL/6 mice): about 80 hours
B6	superior in these parameters compared to other variants									5.923	2.0	5.3796									inhibition of food intake, comparison in words (C57BL/6 mice [3]; single administration, mice): did not last as long as OXM-CTPx5 or OXM-CTPx3; glucose tolerance activity when administered 120 min prior to glucose (C57BL/6 mice [2]; Experiment 2, 100 nmol/kg IP 120 min prior to glucose): induced glucose tolerance activity
B7		313.98	320.86	11.038	30.18	6.62	6.00	4.39	4.13925				32.43	increased	968.2	977.4	3.623	0.80	0.28	1.61	Vd ([1]; iv, 230 ug/kg): 0.5064 L/kg
